This note sets out measurements from paper PMC9408853.

Assay [1] addresses human C-C chemokine receptor type 7 (human) (UniProt P32248).
A further assay deals with CCR7-LgBiT (human) (UniProt P32248).
The target in assay [2] is human C-C chemokine receptor type 7 (human) (UniProt P32248). The source holds these as a separate data set.

As for “C-C chemokine ligand 21 (from UniProt O00585 24-134)”, in assay [1], the G protein activation, Gαi-1 (nanoBRET, Gαi1-91-NLuc with Gγ2-LSS-mKATE2) in HEK293 cells stably expressing CCR7, pEC50 was 8.44 pEC50 (M); the G protein activation, Gαi-2 (nanoBRET, Gαi2-91-NLuc with Gγ2-LSS-mKATE2) in HEK293 cells stably expressing CCR7, pEC50 was 8.72 pEC50 (M); the G protein activation, Gαi-3 (nanoBRET, Gαi3-91-NLuc with Gγ2-LSS-mKATE2) in HEK293 cells stably expressing CCR7, pEC50 is 9.34 pEC50 (M); the inhibition of forskolin-induced cAMP production (GloSensor) in HEK293 cells stably expressing CCR7, pEC50 is 7.67 pEC50 (M). In addition, the ligand-induced CCR7 internalisation (flow cytometry of surface CCR7, 30 min at 37 °C) in HEK293 cells stably expressing CCR7, pEC50 in assay [1] is 6.73 pEC50 (M). In addition, the ligand-induced β-arrestin2 recruitment to CCR7 (NanoBiT, CCR7-LgBiT with SmBiT-β-arrestin2 in HEK293 cells), pEC50 with CCR7-LgBiT (human) is 6.48 pEC50 (M). Further, the cellular electrical impedance of HEK293 cells stably expressing CCR7, AUC[0–120], pEC50 in assay [2] was 6.93 pEC50 (M).

As to “C-C chemokine ligand 19 (from UniProt Q99731 22-98)”, in assay [1], the G protein activation, Gαi-1 (nanoBRET, Gαi1-91-NLuc with Gγ2-LSS-mKATE2) in HEK293 cells stably expressing CCR7, pEC50 is 8.64 pEC50 (M); the G protein activation, Gαi-2 (nanoBRET, Gαi2-91-NLuc with Gγ2-LSS-mKATE2) in HEK293 cells stably expressing CCR7, pEC50 was 9.02 pEC50 (M); the G protein activation, Gαi-3 (nanoBRET, Gαi3-91-NLuc with Gγ2-LSS-mKATE2) in HEK293 cells stably expressing CCR7, pEC50 is 9.61 pEC50 (M); the inhibition of forskolin-induced cAMP production (GloSensor) in HEK293 cells stably expressing CCR7, pEC50 was 7.83 pEC50 (M). Moreover, in assay [1], the ligand-induced CCR7 internalisation (flow cytometry of surface CCR7, 30 min at 37 °C) in HEK293 cells stably expressing CCR7, pEC50 is 7.7 pEC50 (M). Further, in the assay with CCR7-LgBiT (human), the ligand-induced β-arrestin2 recruitment to CCR7 (NanoBiT, CCR7-LgBiT with SmBiT-β-arrestin2 in HEK293 cells), pEC50 was 7.61 pEC50 (M). Moreover, the cellular electrical impedance of HEK293 cells stably expressing CCR7, AUC[0–120], pEC50 in assay [2] was 8.2 pEC50 (M).
